In the experiment the target is the Ala and ValAla insertions and the Met1Ala substitution and Ala insertion. Description: SPR.

Where “and” joins values, the source holds several entries; their conditions need not be identical. Identical values can stand only once.

For rufomycin I (RUF-I) (peptide), the fold reduction in binding affinity against wild type is 13 fold and 16 fold.

Source of the values: paper PMC7193532 (Acta Crystallographica. Section D, Structural Biology, 2020).
